Test results published in the DeepSol protein solubility set.

Assay: soluble on expression in E. coli; label from the status in PepcDB or PDB records

Row | Sequence | soluble on expression in E. coli
1 | MGSDKIHHHHHHMRGIVLFPIINCSGAMVEITSTEMTPPVNDSHEFIPMRGIRNRHLQTMLPRLIRRKVKFNAHWQRLELPDGDFVDLAWSEDPQQAKYKPRLVVFHGLEGSLNSPYAHGLIEAAQKRGWLGVVMHFRGCSGEPNRLNRIYHSGETEDGAWFLRWLQREFGAVPTAAVGYSLGGNMLACLLAKEGRDIPIEAAVIVSAPFVLEACSYHMDKGFSRVYQRYLLNLLKANASRKLAAYPGSLPVNLAQLKSMRRIREFDDLITAKIHGFADAIDYYRQCSAMPLLNQIAKPTLIIHAKDDPFMDHHVIPKAEDLPPQVEYQLTEHGGHVGFIGGTPLRPEMWLERRIPDWLTTYLEASS | not soluble
2 | MSRRSNRTINLPAPYLKRIWLDPSQVHDREAYPFCLPIFPDDFELSFDAAITIIVGENGTGKSTILEGIAALAGYDDAGGGKGYMPVDHSDAREKMGGQLSKALRASWLPKITNGWFFRAESFFSVARYLDKAARDAGQVGPDFLSHSHGEGFLRFFEERCQRQGIFIFDEPESALSPARQIEFLKLLRRMDDSRICQVIMATHSPMLMAYPNAKLLRLGKYGLEPVTVEETDHYRLMREFCDDPRGFVEATLAELEHHHHHH | soluble
3 | MSLAQGANAPLNIPANPQMFGTNDPNVRRATAIVNGEIITGTDVEQRLALIVSANGGKIDGEEKERLRMQVLRNLIDETLQIQEAKAADVPADDGQVDASYERVATQNFGQSADALEKYLARIGSSAASLKRQIRGEIAWQNLLRRNVQPFVNVSEGEVQEAMQRLQASKGTEEYRIGEIFLAATEENKPQVFANAEKIVEQLKQGGSFVAYARQYSEASTAAVGGDLGWIRLAQLPTELATTAASMGPGQLAGPVEIRGGFSILYLIDKREGHHHHHH | soluble
4 | MGSDKIHHHHHHMRRKIPSTTALVSFEAAARHESFTKAAHELSLTQGAVCRQIGGLEEFLGIELFRRSRRGVKLTEAGLSYSRRVAQQLDAVERDTLSVMGEQGAHAIELAVVPTFGTQWLLPRLKDFQHKHPDVTVHLTNRTRPFLFADTDFDAAIYFGDADWSGTQSHRLMGENSLPVCSPSFLGGRGSLKASELAELPLLQQTTRPYAWRQWFNAQNLNVARDMTGPRYELFSMLAQAAMHDMGVALIPPFLILRELHEKRLVIASISALPSNKAYHLMIPERKVESASLTAFRDWLVNQAHDYSLPQDKEQALV | not soluble
5 | MEPHSLRYNLMVLSQDESVQSGFLAEGHLDGQPFLRYDRQKRRAKPQGQWAEDVLGAETWDTETEDLTENGQDLRRTLTHIKDQKGGLHSLQEIRVCEIHEDSSTRGSRHFYYNGELFLSQNLETQESTVPQSSRAQTLAMNVTNFWKEDAMKTKTHYRAMQADCLQKLQRYLKSGVAIRRTVPPMVNVTCSEVSEGNITVTCRASSFYPRNITLTWRQDGVSLSHNTQQWGDVLPDGNGTYQTWVATRIRQGEEQRFTCYMEHSGNHGTHPVPSGKVLVLQSQRTDFPYVSAAMPCFVIIIILCVPCCKKKTSAAEGP | soluble
6 | MTSSSSPSQDTKRLAQTYPEGLRADALMEEDVAWNRGNDSQWDGEQFDRSDRAALRRVAGLSTELEDVTEVEYRQLRLERVVLVGVWTSGTVQDAENSLAELAALAETAGALVLDGVVQRRDKPDAATYIGSGKAEELRDVVLHTGADTVICDGELSPGQLIHLEDVVKVKVIDRTALILDIFAQHAKSREGKAQVALAQMQYMLPRLRGWGQSLSRQMGGGKGGGLATRGPGETKIETDRRRIREKMAKMRREIAEMKTGREIKRQERKRHKVPSVAIAGYTNAGKSSLLNRLTGAGVLVENALFATLDPTVRRAETPSGRLYTLADTVGFVRHLPHHLVEAFRSTMEEVGDSDLILHVVDGSHPVPEEQLAAVREVIRDVGATDVPEIVVINKADMADPLVLQRLLRIEKRAIAVSARTGQNIDQLLALIDNELPRPSVEIEALVPYTHGKLVARAHDEGEVISEEHTPEGTLLKVRVHEELAAELAPYVPAPLALEHHHHHH | not soluble
7 | MGSDKIHHHHHHMNETGLLDAYGTEEKEAYIGVIASIATADRVATEDELEYLNALSEAVGINPDVAEAAAKDRSDESLSKYLNALKGSDLRFSLITDIVSFARSDGRYTADEEEKIKNSCRYLGITDEQVTVLEELVEKSNILITIPEEATDEGFFEKNGFSQMLKKANIPLISIVKGLLGLAAPFVLSKMVRSRSLSGSPAAGGLGGQLGGTVLGTFQAGRIGGLGSILANLNGIRGYADIGTILKKAIDKKEINS | not soluble
8 | MAVSTVTGAAGIGLATLAADGSVLDTWFPAPELTESGTSATSRLAVSDVPVELAALIGRDDDRRTETIAVRTVIGSLDDVAADPYDAYLRLHLLSHRLVAPHGLNAGGLFGVLTNVVWTNHGPCAIDGFEAVRARLRRRGPVTVYGVDKFPRMVDYVVPTGVRIADADRVRLGAHLAPGTTVMHEGFVNYNAGTLGASMVEGRISAGVVVGDGSDVGGGASIMGTLSGGGTHVISIGKRCLLGANSGLGISLGDDCVVEAGLYVTAGTRVTMPDSNSVKARELSGSSNLLFRRNSVSGAVEVLARDGQGIALNEDLHANGVPRGLEHHHHHH | soluble
9 | MAEAKQWDVKQLDRIVEKMIDTVQHSKDEIFRIGEQSRQEHDHLLRELEEVKRLTVQAIEEADQLEMKARQARRRLSEVSQNFSTHSEQDIREAYEQAHELHMKLTMVREREKQLRLRRDELERRLASLAQIIERADYLVGQITVVLHYLNSDFRQVGELIEGAKQKQEFGLKIIEAQEEERRRLSREIHDGPAQLLAHVLLRSDLVEKVIKERGTEAAIAEIRDFRKMVRSALSEVRRIIYDLRPMALDDLGLVPTLKKYLQTTEEYNKGVHISFVHIGEEIRLPSRMEAAVFRLVQESVQNALKHAEARHIDVKMEVTCDHLLVSVKDDGKGFDPSVKKENAFGLIGMRERVELLGGTLDIRSKIGSGTTVFIRVPLDRSTDKTNKEERKR | not soluble
10 | GSMAISDPPNSSSVPLEGNGTILVKGNVTIIVEGNADITVKGDATTLVEGNQTNTVNGNLSWKVAGTVDWDVGGDWTEKMASMSSISSGQYTIDGSRIDIGSVEGYIPEAPRDGQAYVRKDGEWVFLSTFLVEHHHHHH | soluble
11 | MRLEKFIHLLGERGFDGALISPGTNLYYLTGLRLHEVGERLAILAVSAEGDYRFLAPSLYENVVNNFPATFWHDGENPYAKLREILEELGISKGRILIEDTMRADWLIGIMKLGKFTFQPLSSLIKELRMIKDKEEVKMMEHASRIADKVFEEILTWDLIGMKERELALKIELLIRELSDGIAFEPIVASGENAANPHHEPGERKIRKGDIIILDYGARWKGYCSDITRTIGLGELDERLVKIYEVVKDAQESAFKAVREGIKAKDVDSRAREVISKAGYGEYFIHRTGHGLGLDVHEEPYIGPDGEVILKNGMTFTIEPGIYVPGLGGVRIEDDIVVDEGKGRRLTKAERELIIL | soluble
12 | KNVNRVLSAEALKPGMLLTGTVSSLEDHGYLVDIGVDGTRAFLPLLKAQEYIRQKNKGAKLKVGQYLNCIVEKVKGNGGVVSLSVGHSEVSTAIATEQQSWNLNNL | soluble
13 | MESRKLISATDIQYSGSLLNSLNEQRGHGLFCDVTVIVEDRKFRAHKNILSASSTYFHQLFSVAGQVVELSFIRAEIFAEILNYIYSSKIVRVRSDLLDELIKSGQLLGVKFIAAL | soluble
14 | MDLVFRPERYPFLTQDLPGVGGEIRVEPEDFQVEEVPAYLPKGEGEHLYLLLEKEGRTTREVLEFLRDEVGVPEKEIGVAGLKDKRAKTRQWFSIPRKYEDALCLLENLQGVRLLAADLHTNKLRTGHLKGNRFHILIRRPKGGVAEAEAVLKRLAEKGVPNYYGPQRFGLGGLNPVRGYKLVKEGKGRGSPWLKRFLIGSLQSLLFNDWVALRMALGLYDRVVPGDWAKKHATGGEFLVEDPGEAERALRLEISATGPLFGKKYPEAQGEARAIEDEVLARYGLKREEFRARRGARRPIRVPLAEWKVEEAPEGLWLSFFLPKGSYATSLLREVMKVEALDHLEAEPAPEDAEGL | soluble
15 | MFEGKLVRLRAYRKEDIEKALEFANDPEVKKCLVPGIPFPWRKEDEEKWYQSLNPFSTDSYSFAIEKLSDGEYIGGCSINKIDWKNSVAEVGIFLGRPYWSQGYGTDAMRVLVRFIFNEMNMNKIKLHVFSFNERAKRVYEKIGFKVEGILRQELFREGRYHDVIVMGLLKSEWEDLTETDL | soluble
